# Measurements taken from the supplement of paper PMC10567573.
# ± gives the standard deviation.
# Experiment: protein stability index of a GFP-peptide fusion (GPS, HEK-293T) (PSI 1-6); higher = more stable
# [1] = treatment: DMSO, c terminus: a fixed tail appended
# [2] = treatment: MLN4924 1 uM, 8 h, c terminus: a fixed tail appended
# [3] = treatment: DMSO, c terminus: native
# [4] = treatment: MLN4924 1 uM, 8 h, c terminus: native
# 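Note: 24-mer peptide tiles fused after GFP, lentivirally expressed, FACS-sorted into six equal bins by GFP/DsRed ratio, decoded by Illumina sequencing, PSI is the read-weighted mean bin number.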
Sequence,protein stability index [1],protein stability index [2],protein stability index [3],protein stability index [4]
AAARGGQCPGLGPAPTPTPPGRLG [ZBED3],4.36 ± 0.24,4.63 ± 0.34,–,–
AAKKVAPLMAKAIRDYKGRFSRR [ELOA2],–,–,2.79 ± 0.33,3.02 ± 0.62
AALLGSNSESWGWDIGRGKLYHQS [SPSB2],2.6 ± 0.63,3.06 ± 0.13,–,–
AAPAVRASSSPVTLRQKTVDWRRV [SLA],3.2 ± 0.54,3.17 ± 0.72,–,–
ACIAYIRITQYLDAGGIPRTAQSE [CAMK2A],2.64 ± 0.42,2.81 ± 0.39,–,–
ADTTTGSAAGPPLSEDDKLQGAAS [EHMT1],5.46 ± 0.23,5.51 ± 0.18,–,–
AEEHREKLLKQMRILWKKIQENQR [TRIM43],2.46 ± 0.24,2.21 ± 0.18,–,–
AEETANLPPSPPPSPASEQTVTVE [MAP2],5.05 ± 0.18,5.18 ± 0.17,–,–
AELVLLTLGQAWQGYVSDIRRFLS [DFFB],2.12 ± 0.17,2.06 ± 0.21,–,–
AEVQAKLENAEVLELTVRRVQGVL [HES6],2.71 ± 0.38,2.58 ± 0.25,–,–
AFAQRPSSAPDLMCLSPDRKMEVE [CDC25B],4.97 ± 0.3,4.78 ± 0.14,–,–
AFDYNSLSPTQRQKNFELAFTMAE [SMTNL2],2.76 ± 0.3,3.09 ± 0.29,–,–
AFHVRRTNRVKECLAKGTFSDVTF [RHOBTB2],2.57 ± 0.24,2.78 ± 0.4,–,–
AFYKEQLARLEERSSEFYRVTTEQ [CHCHD3],3.29 ± 0.12,3.38 ± 0.34,–,–
AGADLEHESEGGRTPLMKAARAGH [ANKRD17],5.07 ± 0.29,4.95 ± 0.26,–,–
AGDEAVFAQYDSFHVDSAAEYYRL [TNXB],3.51 ± 0.38,3.68 ± 0.13,–,–
AGGEENMTETDAFYKREMFDPAEK [CASP6],5.13 ± 0.32,5.37 ± 0.3,–,–
AGTKVFEVPEMSPVTCCDVSSNNR [TLE6],4.13 ± 0.26,4.17 ± 0.33,–,–
AHQHRDKMQQSKNQVVSSTNGELN [CSNK1G3],5.02 ± 0.42,5.1 ± 0.25,–,–
AIGVSISLSSIATCVYIAEIAPQH [SLC2A12],3.17 ± 0.13,3.34 ± 0.38,–,–
AIKEMIENCLDAKSTSIQVIVKEG [MLH1],2.79 ± 0.19,2.74 ± 0.22,–,–
AIVGGMALGVAGLAGLIGLAVSKS [FIS1],3.38 ± 0.82,3.12 ± 0.51,–,–

Sequence,protein stability index [1],protein stability index [2],protein stability index [3],protein stability index [4]
AKGNTALHDCAESGSLEILQLLLG [FEM1A],2.41 ± 0.23,2.16 ± 0.26,–,–
AKQLQAVKRKIRDESLCPQHHEAL [TRIM39],3.99 ± 0.2,3.97 ± 0.19,–,–
ALAPKQELPSALESHEVPGTLSMG [ZNF24],4.59 ± 0.25,4.75 ± 0.3,–,–
ALGPLRTPAPPLWIGLFLVATGSQ,2.64 ± 0.57,2.27 ± 0.14,–,–
ALLESSLRQAQQNMDPKAAEEEEE [CCND1],5.28 ± 0.29,5.42 ± 0.25,–,–
ALQEKLWNVAAPLYLKQSDLASAA [INTS4],2.31 ± 0.17,2.27 ± 0.3,–,–
ALVKEREKQLAKKEQSKELQMKLE [FAM50A],4.87 ± 0.076,4.64 ± 0.37,–,–
AMGDHSKKKPGTAMCVGCGSQIHD [ISL2],4.18 ± 0.32,4.3 ± 0.26,–,–
AMLREKFPEFCSSPSPPVEVKIEE [INTS3],4.51 ± 0.3,4.65 ± 0.12,–,–
ANAQIQILTRSWEEVSTLNAQIPE [CD207],3.52 ± 0.18,3.53 ± 0.2,–,–
APEYFEKNEPYLEAACNDVDRWPA [DENND6A],4.59 ± 0.29,4.47 ± 0.38,–,–
APPSPRDISMEIDSPENMMRHIRF [CCDC6],3.51 ± 0.28,3.65 ± 0.26,–,–
APQGGMAALNMSLGMVTPVNDLRG [ADD1],3.83 ± 0.23,3.77 ± 0.097,–,–
AQDLMDGLPPGDSNQLAWFDTDL [CTNNB1],–,–,5.29 ± 0.094,5.09 ± 0.081
AQSEAEKKLKKDDKKKELQELNEL [ZC3H15],5.56 ± 0.23,5.53 ± 0.21,–,–
AQTFIALCATDFKFAMYPPSMIAT [CCND2],2.75 ± 0.71,3.04 ± 0.62,–,–
AQVPDTRWSRVGGQRFYSRVLSPL,2.41 ± 0.69,2.75 ± 0.43,–,–
ARFITDFLDNGYGHCLLDKPEAPL [ADAMTS4],2.19 ± 0.2,2.01 ± 0.22,–,–
ASAETLPAGFRVSTLGTLQPPPAP [PPFIA4],3.94 ± 0.35,4.06 ± 0.23,–,–
ASDYSKKSNVLKLKTADWRVFLFQ [PSD2],2.12 ± 0.42,2.23 ± 0.19,–,–
ASHNGISYKDLDVIFGVELPGNEE [TENT5D],4.03 ± 0.16,4.01 ± 0.13,–,–
ASLKGYQWLKDKILSEEGRRQQAK [KCNAB2],3.69 ± 0.18,3.67 ± 0.21,–,–

Sequence,protein stability index [1],protein stability index [2],protein stability index [3],protein stability index [4]
ASVLLQAVLYPRFMGTISDVKTNV [CD207],2.76 ± 0.38,2.69 ± 0.41,–,–
ATADFADVADDFENYHKLRRSSSK [NETO1],4.99 ± 0.096,5.196 ± 0.05,–,–
ATKKLGFKHPVIGVHVRRTDKVGT [FUT8],3.12 ± 0.091,3.15 ± 0.21,–,–
ATTYKHGVLTRKTHADMDGKRTPR [PSD2],4.44 ± 0.16,4.63 ± 0.26,–,–
AVCLLGVGTMVGADILAGREDNSG [SLC35F2],3.17 ± 0.5,3.11 ± 0.2,–,–
AVLFTGIVALYIASGLTGFIGLEV [ATL3],3.49 ± 0.43,3.52 ± 0.35,–,–
AVLPTAFRVAKKRAPKVLGTTLVV [GDAP1],2.18 ± 0.2,2.15 ± 0.2,–,–
AWLNEHRKNPYPTKGEKIMLAIIT [IRX6],2.7 ± 0.42,2.51 ± 0.41,–,–
CAECSQYLDETCTCFVRDGKTYCK [ISL2],4.98 ± 0.29,4.74 ± 0.37,–,–
CCAAPGPHVALAVRYNRVGILRRI [ANKRD9],2.37 ± 0.26,2.49 ± 0.2,–,–
CCINSHCGWPRGKDAPCYESDTDI [DRICH1],2.94 ± 0.3,3.02 ± 0.29,–,–
CCSSADICPKCWTLMTMAIRIIDR [PRIM1],2.25 ± 0.18,2.44 ± 0.55,–,–
CERHEKGVLHKHQRALHKYSLMKR [SNX8],3.56 ± 0.29,3.8 ± 0.31,–,–
CEVIFCVFIFYYVVEEILELHIHR [PKD2L1],3 ± 0.52,3.07 ± 0.11,–,–
CFVLGFFYPVMLILFLVIGGMLNF [SOAT2],3.27 ± 0.52,3.53 ± 0.61,–,–
CLGALCENTCLLRGFSGGILAFLV [TSPAN10],2.34 ± 0.57,2.55 ± 0.33,–,–
CMKIPTGQEYAAKIINTKKLSARD [CAMK2D],3.7 ± 0.69,3.83 ± 0.42,–,–
CPRIAPADSGRYRASPTRTAPLPM [ELOA2],3.63 ± 0.17,3.76 ± 0.41,–,–
CPTPARLATTEKKTEQQRRREKAV [NOP53],5.19 ± 0.27,5.28 ± 0.24,–,–
CRPLLPSCTTRLCQEEQLRSHENK [PSD2],4 ± 0.13,3.88 ± 0.34,–,–
CRQRLIFEQTPALTKHEWTEALGC [ZNF8],2.38 ± 0.2,2.42 ± 0.26,–,–
